B1: rhG-CSF: recombinant human granulocyte colony-stimulating factor (Amgen) (protein, UniProt P09919 31-207, looked up)
Granulocyte …: TPLGPASSLPQSFLLKCLEQVRKIQGDGAALQEKLVSECATYKLCHPEELVLLGHSLGIPWAPLSSCPSQALQLAGCLSQLHSGLFLYQGLLQALEGISPELGPTLDTLQLDVADFATTIWQQMEELGMAPALQPTQGAMPAFASAFQRRAGGVLVASHLQSFLEVSYRVLRHLAQP

How the values were obtained:
GM-CFC = assay: Hematopoietic progenitor colony forming assay of WBC from treated mice; format: in vivo; conditions: for Number of GM-CFC (n = 3): median colony number per 200,000 cells plated, methylcellulose culture, 10 days of incubation, triplicate cultures; for Type of colonies formed in cultures of WBC: methylcellulose colony assay
Protocol: WBC from treated mice were also plated in standard hematopoietic progenitor colony forming assays. Colony formation from cultures of 200,000 cells per 35 mm petri dishes were scored at 10 days of culture.
The median colony number pre 200,000 cells plated is presented from 3 triplicate cultures containing 1 ml of methycellulose plus rmIL-3, rmGM-CSF, rrSCF and rhG-CSF.

mesenchymal stem cells = assay: Mouse model of mobilization: MSC formation in culture of peripheral blood WBC from treated mice; format: in vivo; conditions: for Stromal cell formation in cultures of WBC: SP 10 μg/kg or rhG-CSF 250 ug/kg i.p. for 4 days, PB harvested on fifth day; for Stromal cell formation in cultures of WBC / MSC / adherent stromal cell formation after 5 to 7 days of culture: 35 mm wells; for MSC / adherent stromal cell formation after 5 to 7 days of culture / MSC foci after 10 days of culture: SP 10 μg/kg, i.p. 4 days; for MSC / adherent stromal cell formation after 5 to 7 days of culture: rhG-CSF 250 μg/kg or both; for MSC foci after 10 days of culture: rhG-CSF 250 μg/kg
Protocol: To evaluate the potential of different mobilization agents, a mouse model of mobilization was used. Groups of mice (n=5) were treated with cytokines or mobilization agents and peripheral blood harvested into heparin containing tubes. The blood was treated with ammonium chloride to lyse the red cells and the white cells plated in 6 well plates treated with gelatin and evaluated for MSC formation at various time points.
Mice were injected intraperitoneally with 250 ug/kg of rhG-CSF (Amgen Inc, Thousand Oaks, Calif.) or normal saline for 5 days and PB harvested on the fifth day. The white cells were plated in media from Stem Cell Technologies (Vancouver, Canada) for culture of mesenchymal stem cells with murine supplements.
Mice (groups of 5 mice per treatment arm) were injected intraperitoneally with 10 μg/kg of Substance P (Sigma-Aldrich, St Louis, Mo.) or with 250 ug/kg of rhG-CSF for 4 days and PB harvested on the fifth day. The white cells were plated in media from Stem Cell Technologies (Vancouver, Canada) for culture of mesenchymal stem cells with murine supplements.
Mice (groups of 5 mice per treatment arm) were injected intraperitoneally with 10 μg/kg of Substance P (Sigma-Aldrich, St Louis, Mo.), with 250 μg/kg of rhG-CSF, or the combination of 10 μg/kg SP plus 250 μg/kg rhG-CSF for 4 days and PB harvested on the fifth day. The white cells were plated in media from Stem Cell Technologies (Vancouver, Canada) for culture of mesenchymal stem cells with murine supplements.

peripheral blood WBC [1] = assay: Peripheral blood WBC counts of treated mice; format: in vivo; conditions: 7 day treatment
Protocol: G-CSF mobilization increases the circulating WBC count in mice and humans with typical counts approximately 25,000 to 30,000 WBC/μl. The effects of the combination of SP+G-CSF on peripheral WBC in treated mice was evaluated.
The different effects on peripheral WBC count of mobilization agents used were established.

MSCs or MSC precursors = assay: Culture of rhG-CSF mobilized peripheral blood from normal donors under MSC conditions; format: in vivo; conditions: normal human donors mobilized with G-CSF, standard MSC culture
Protocol: Normal unmobilized PB and PB from normal donors mobilized with rhG-CSF was obtained and the potential of the MNCs to generate MSCs was evaluated. When placed in standard culture there was development of adherent cells that appeared like adipocyte cells and endothelial cells (FIG. 1).

peripheral blood WBC [2] = conditions: mice and humans, general statement; cited from earlier work

Molecule | Number of GM-CFC (n = 3) (GM-CFC) | Type of colonies formed in cultures of WBC (GM-CFC) | Stromal cell formation in cultures of WBC (mesenchymal stem cells) | MSC / adherent stromal cell formation after 5 to 7 days of culture (mesenchymal stem cells) | MSC foci after 10 days of culture (mesenchymal stem cells) | Blast like cells on cytospin slides of WBC (mesenchymal stem cells; WBC from SP treated mice) | Effect on peripheral blood WBC levels (peripheral blood WBC [1]) | Adherent cells in cultures of WBC (mesenchymal stem cells; 250 ug/kg intraperitoneally for 5 days, PB harvested on the fifth day) | MSC formation from mobilized peripheral blood cells (MSCs or MSC precursors) | MSC formation from mobilized peripheral blood cells (MSCs or MSC precursors; listed as G-CSF) | Typical circulating WBC count after mobilization (peripheral blood WBC [2])
Substance P (RPKPQQFFGLM; printed: Arg Pro Lys Pro Gln Gln Phe Phe Gly Leu Met) [SP, Sigma-Aldrich, reference compound] | 5 | colonies containing both hematopoietic and MSC cells | generated adherent stromal cells after 5 to 7 days with several foci | a few adherent stromal cells | several MSC foci | increase in blast like cells | no significant effect |  |  |  | 
B1 | 26 | Typical hematopoietic colonies | no stromal cell formation evident | one area with MSC cells | one foci |  |  | failed to proliferate and resembled endothelial cells not MSCs | no evidence of MSC formation | fail to generate mesenchymal stem cells | 25,000 to 30,000 WBC/μl

Source: patent publication US20120225028A1, “COMPOSITIONS AND METHODS FOR MOBILIZATION OF STEM CELLS” (priority 2011, published 2012)
